Publication PMC10397247

Experiments:
Assay in all cases: two-hybrid library CCmax;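 further: natural log of median RNA to DNA barcode read ratio; higher means stronger binding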
4H3009-AA = target: T1, 4H3009-AA; conditions: mean of both orientations
T1 chain: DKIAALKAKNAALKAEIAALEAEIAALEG

4H2109-AA = target: T2, 4H2109-AA; conditions: mean of both orientations
T2 chain: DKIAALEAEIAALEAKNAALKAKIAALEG

4H2698-AA = target: T3, 4H2698-AA; conditions: mean of both orientations
T3 chain: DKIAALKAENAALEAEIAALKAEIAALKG

4H310-AA = target: T4, 4H310-AA; conditions: mean of both orientations
T4 chain: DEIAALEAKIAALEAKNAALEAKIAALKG

4H3865-AA = target: T5, 4H3865-AA; conditions: mean of both orientations
T5 chain: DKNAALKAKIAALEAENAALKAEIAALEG

4H2649-AA = target: T6, 4H2649-AA; conditions: mean of both orientations
T6 chain: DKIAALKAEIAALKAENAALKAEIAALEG

4H3753-AA = target: T7, 4H3753-AA; conditions: mean of both orientations
T7 chain: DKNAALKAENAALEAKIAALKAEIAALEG

4H570-AA = target: T8, 4H570-AA; conditions: mean of both orientations
T8 chain: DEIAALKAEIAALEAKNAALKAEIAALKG

4H2330-AA = target: T9, 4H2330-AA; conditions: mean of both orientations
T9 chain: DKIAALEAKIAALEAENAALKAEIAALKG

4H1877-AA = target: T10, 4H1877-AA; conditions: mean of both orientations
T10 chain: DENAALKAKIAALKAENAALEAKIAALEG

4H2253-AA = target: T11, 4H2253-AA; conditions: mean of both orientations
T11 chain: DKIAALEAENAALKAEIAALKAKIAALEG

4H174-AA = target: T12, 4H174-AA
T12 chain: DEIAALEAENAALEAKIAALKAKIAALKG

4H2438-AA = target: T13, 4H2438-AA; conditions: mean of both orientations
T13 chain: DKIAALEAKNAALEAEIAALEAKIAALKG

4H3016-AA = target: T14, 4H3016-AA; conditions: mean of both orientations
T14 chain: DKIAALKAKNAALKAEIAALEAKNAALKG

4H3395-AA = target: T15, 4H3395-AA
T15 chain: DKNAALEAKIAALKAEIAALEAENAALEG

4H1864-AA = target: T16, 4H1864-AA; conditions: mean of both orientations
T16 chain: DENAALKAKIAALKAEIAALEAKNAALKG

4H891-AA = target: T17, 4H891-AA; conditions: mean of both orientations
T17 chain: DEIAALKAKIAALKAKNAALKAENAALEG

4H3130-AA = target: T18, 4H3130-AA
T18 chain: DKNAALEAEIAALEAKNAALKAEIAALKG

4H745-AA = target: T19, 4H745-AA; conditions: mean of both orientations
T19 chain: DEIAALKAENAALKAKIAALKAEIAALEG

4H485-AA = target: T20, 4H485-AA; conditions: mean of both orientations
T20 chain: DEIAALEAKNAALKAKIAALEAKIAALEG

4H3590-AA = target: T21, 4H3590-AA; conditions: mean of both orientations
T21 chain: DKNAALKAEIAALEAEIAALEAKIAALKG

4H710-AA = target: T22, 4H710-AA; conditions: mean of both orientations
T22 chain: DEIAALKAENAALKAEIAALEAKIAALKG

4H1842-AA = target: T23, 4H1842-AA; conditions: mean of both orientations
T23 chain: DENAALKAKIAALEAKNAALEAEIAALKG

4H3120-AA = target: T24, 4H3120-AA; conditions: mean of both orientations
T24 chain: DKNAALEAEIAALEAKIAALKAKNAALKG

4H458-AA = target: T25, 4H458-AA; conditions: mean of both orientations
T25 chain: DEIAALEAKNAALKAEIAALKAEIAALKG

4H2274-AA = target: T26, 4H2274-AA; conditions: mean of both orientations
T26 chain: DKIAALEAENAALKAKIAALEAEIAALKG

4H797-AA = target: T27, 4H797-AA; conditions: mean of both orientations
T27 chain: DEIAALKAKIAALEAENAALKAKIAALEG

4H3697-AA = target: T28, 4H3697-AA; conditions: mean of both orientations
T28 chain: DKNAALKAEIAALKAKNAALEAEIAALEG

4H850-AA = target: T29, 4H850-AA; conditions: mean of both orientations
T29 chain: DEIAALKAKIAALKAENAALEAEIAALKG

4H2865-AA = target: T30, 4H2865-AA; conditions: mean of both orientations
T30 chain: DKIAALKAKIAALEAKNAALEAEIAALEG

4H2389-AA = target: T31, 4H2389-AA; conditions: mean of both orientations
T31 chain: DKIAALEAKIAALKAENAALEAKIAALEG

4H3165-AA = target: T32, 4H3165-AA; conditions: mean of both orientations
T32 chain: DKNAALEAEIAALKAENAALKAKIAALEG

4H2473-AA = target: T33, 4H2473-AA; conditions: mean of both orientations
T33 chain: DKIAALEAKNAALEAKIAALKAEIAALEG

4H930-AA = target: T34, 4H930-AA; conditions: mean of both orientations
T34 chain: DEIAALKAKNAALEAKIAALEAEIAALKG

4H94-AA = target: T35, 4H94-AA; conditions: mean of both orientations
T35 chain: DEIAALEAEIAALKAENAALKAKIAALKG

4H2162-AA = target: T36, 4H2162-AA; conditions: mean of both orientations
T36 chain: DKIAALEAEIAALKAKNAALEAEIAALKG

4H536-AA = target: T37, 4H536-AA; conditions: mean of both orientations
T37 chain: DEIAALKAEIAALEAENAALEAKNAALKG

4H909-AA = target: T38, 4H909-AA; conditions: mean of both orientations
T38 chain: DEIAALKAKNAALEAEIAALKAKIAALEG

4H3381-AA = target: T39, 4H3381-AA; conditions: mean of both orientations
T39 chain: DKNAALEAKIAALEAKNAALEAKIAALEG

4H629-AA = target: T40, 4H629-AA; conditions: mean of both orientations
T40 chain: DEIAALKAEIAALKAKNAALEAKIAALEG

4H2725-AA = target: T41, 4H2725-AA; conditions: mean of both orientations
T41 chain: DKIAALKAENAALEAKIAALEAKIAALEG

4H3410-AA = target: T42, 4H3410-AA; conditions: mean of both orientations
T42 chain: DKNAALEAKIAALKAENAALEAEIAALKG

interaction score (4H3009-AA): 2.3 | interaction score (4H2109-AA): 2.01 | interaction score (4H2698-AA): 2.04 | interaction score (4H310-AA): 1.6 | interaction score (4H3865-AA): 0.259 | interaction score (4H2649-AA): -0.748 | interaction score (4H3753-AA): 1.06 | interaction score (4H570-AA): 1.49 | interaction score (4H2330-AA): 0.552 | interaction score (4H1877-AA): -0.507 | interaction score (4H2253-AA): 0.429 | interaction score (4H174-AA): 1.79 | interaction score (4H2438-AA): 2.25 | interaction score (4H3016-AA): 1.81 | interaction score (4H3395-AA): 0.219 | interaction score (4H1864-AA): -0.256 | interaction score (4H891-AA): -0.401 | interaction score (4H3130-AA): 1.99 | interaction score (4H745-AA): 1.69 | interaction score (4H485-AA): 1.94 | interaction score (4H3590-AA): 2.2 | interaction score (4H710-AA): 2.23 | interaction score (4H1842-AA): -0.689 | interaction score (4H3120-AA): -0.846 | interaction score (4H458-AA): 0.887 | interaction score (4H2274-AA): 1.3 | interaction score (4H797-AA): -1.35 | interaction score (4H3697-AA): -0.364 | interaction score (4H850-AA): 1.05 | interaction score (4H2865-AA): 0.805 | interaction score (4H2389-AA): -0.219 | interaction score (4H3165-AA): -1.24 | interaction score (4H2473-AA): 1.69 | interaction score (4H930-AA): 1.44 | interaction score (4H94-AA): 1.29 | interaction score (4H2162-AA): -0.944 | interaction score (4H536-AA): -0.546 | interaction score (4H909-AA): 0.929 | interaction score (4H3381-AA): -1.38 | interaction score (4H629-AA): -0.697 | interaction score (4H2725-AA): 1.47 | interaction score (4H3410-AA): -0.289
Binder: DEIAALEAENAALEAKIAALKAKIAALKG [4H174-AA]
